Test results as given in patent publication US20130315910A1 (Xencor, published 2013).

T1: human FcγRIIa (131R), His- and GST-tagged (human, UniProt P12318 34-217)
T1 construct: Expressed in HEK293T cells, purified by nickel chromatography; also called R131 FcγRIIa; not shown: 6xHis and GST tags of the pTT5 vector
T1 sequence (looked up): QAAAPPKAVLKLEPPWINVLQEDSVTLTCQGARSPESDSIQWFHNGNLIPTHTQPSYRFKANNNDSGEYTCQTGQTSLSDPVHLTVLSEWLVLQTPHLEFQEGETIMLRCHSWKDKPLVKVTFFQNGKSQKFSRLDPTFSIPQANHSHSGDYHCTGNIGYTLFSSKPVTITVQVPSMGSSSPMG

T2: human FcγRIIa (131H), His- and GST-tagged (human, UniProt P12318 34-217)
T2 construct: also called H131 FcγRIIa; HIIa; not shown: 6xHis and GST tags of the pTT5 vector
T2 sequence (looked up): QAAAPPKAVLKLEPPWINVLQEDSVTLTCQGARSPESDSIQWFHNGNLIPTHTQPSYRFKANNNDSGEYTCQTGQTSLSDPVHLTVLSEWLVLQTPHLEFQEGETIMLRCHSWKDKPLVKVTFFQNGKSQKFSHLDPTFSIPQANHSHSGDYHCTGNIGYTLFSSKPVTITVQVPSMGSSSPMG

T3: human FcγRIIb receptor protein (R&D Systems) (human, UniProt P31994 46-217)
T3 construct: Bought protein injected over captured antibody in Biacore; also called CD32b
T3 sequence (looked up): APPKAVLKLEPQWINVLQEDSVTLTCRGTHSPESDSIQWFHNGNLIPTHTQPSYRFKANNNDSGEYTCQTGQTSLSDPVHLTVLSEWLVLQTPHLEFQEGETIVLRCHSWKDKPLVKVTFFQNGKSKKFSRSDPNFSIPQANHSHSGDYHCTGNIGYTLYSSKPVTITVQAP

T4: mFcγRIIb (Mus musculus, UniProt P08101)
T4 construct: extracellular region, C-terminal His- and GST-tag; also called mouse FcγRII
T4 sequence (receptor extracellular region, looked up): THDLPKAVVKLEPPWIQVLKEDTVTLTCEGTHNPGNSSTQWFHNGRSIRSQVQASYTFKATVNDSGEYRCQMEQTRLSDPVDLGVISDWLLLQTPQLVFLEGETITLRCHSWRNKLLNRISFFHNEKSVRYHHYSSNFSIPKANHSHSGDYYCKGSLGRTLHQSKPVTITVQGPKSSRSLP

T5: cynoFcγRIIb (Macaca fascicularis, UniProt A0A140HDP4)
T5 construct: extracellular region, C-terminal His- and GST-tag; also called cynomolgus monkey FcγRIIb
T5 sequence (receptor extracellular region): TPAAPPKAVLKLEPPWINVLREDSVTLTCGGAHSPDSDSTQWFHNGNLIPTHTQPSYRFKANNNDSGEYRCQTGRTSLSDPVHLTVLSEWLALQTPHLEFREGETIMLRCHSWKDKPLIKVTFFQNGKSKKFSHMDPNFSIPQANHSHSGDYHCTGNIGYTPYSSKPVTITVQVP

T6: mFcγRIV
T6 construct: also called mouse FcγRIV; not shown: C-terminal His and GST tags (named only on our card)
T6 chain: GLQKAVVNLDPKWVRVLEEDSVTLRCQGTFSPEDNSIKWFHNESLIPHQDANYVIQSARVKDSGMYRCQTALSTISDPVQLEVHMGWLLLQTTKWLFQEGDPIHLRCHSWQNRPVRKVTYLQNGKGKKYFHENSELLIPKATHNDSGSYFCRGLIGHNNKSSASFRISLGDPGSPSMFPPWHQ

B1: G237A (antibody, human IgG1, kappa)
heavy: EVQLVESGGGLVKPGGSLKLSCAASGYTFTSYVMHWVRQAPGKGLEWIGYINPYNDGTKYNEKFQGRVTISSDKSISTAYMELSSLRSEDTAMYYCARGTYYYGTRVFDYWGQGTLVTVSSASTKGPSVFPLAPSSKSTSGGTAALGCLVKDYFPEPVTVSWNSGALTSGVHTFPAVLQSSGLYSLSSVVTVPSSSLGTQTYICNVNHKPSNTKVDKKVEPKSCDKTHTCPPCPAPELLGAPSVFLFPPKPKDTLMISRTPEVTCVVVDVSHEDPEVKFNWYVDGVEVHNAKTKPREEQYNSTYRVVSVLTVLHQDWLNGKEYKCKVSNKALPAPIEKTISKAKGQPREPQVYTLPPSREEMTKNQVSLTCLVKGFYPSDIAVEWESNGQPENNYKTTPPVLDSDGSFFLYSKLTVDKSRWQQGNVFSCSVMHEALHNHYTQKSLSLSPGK
light: DIVMTQSPATLSLSPGERATLSCRSSKSLQNVNGNTYLYWFQQKPGQSPQLLIYRMSNLNSGVPDRFSGSGSGTEFTLTISSLEPEDFAVYYCMQHLEYPITFGAGTKLEIKRTVAAPSVFIFPPSDEQLKSGTASVVCLLNNFYPREAKVQWKVDNALQSGNSQESVTEQDSKDSTYSLSSTLTLSKADYEKHKVYACEVTHQGLSSPVTKSFNRGEC
notes: HuAM4G7 anti-CD19 IgG1 (m1) with this Fc substitution, EU index; copies: 2 + 2
B2: anti-CD19 antibody HuAM4G7 IgG1 G236D/S267E (antibody)
heavy: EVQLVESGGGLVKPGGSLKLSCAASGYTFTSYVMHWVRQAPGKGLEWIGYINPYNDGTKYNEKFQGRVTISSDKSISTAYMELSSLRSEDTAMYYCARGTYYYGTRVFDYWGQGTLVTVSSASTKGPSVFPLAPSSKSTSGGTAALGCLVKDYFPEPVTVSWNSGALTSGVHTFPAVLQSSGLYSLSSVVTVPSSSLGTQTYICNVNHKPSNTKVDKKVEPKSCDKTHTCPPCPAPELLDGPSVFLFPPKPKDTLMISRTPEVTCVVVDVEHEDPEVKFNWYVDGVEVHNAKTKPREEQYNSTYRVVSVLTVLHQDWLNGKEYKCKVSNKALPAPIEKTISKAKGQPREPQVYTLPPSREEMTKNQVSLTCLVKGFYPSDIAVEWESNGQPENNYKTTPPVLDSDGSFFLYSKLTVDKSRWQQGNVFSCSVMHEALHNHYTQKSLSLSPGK
light: DIVMTQSPATLSLSPGERATLSCRSSKSLQNVNGNTYLYWFQQKPGQSPQLLIYRMSNLNSGVPDRFSGSGSGTEFTLTISSLEPEDFAVYYCMQHLEYPITFGAGTKLEIKRTVAAPSVFIFPPSDEQLKSGTASVVCLLNNFYPREAKVQWKVDNALQSGNSQESVTEQDSKDSTYSLSSTLTLSKADYEKHKVYACEVTHQGLSSPVTKSFNRGEC
notes: Positions in EU numbering; copies: 2 + 2
B3: anti-CD19 antibody HuAM4G7 IgG1 G236R/L328R (antibody)
heavy: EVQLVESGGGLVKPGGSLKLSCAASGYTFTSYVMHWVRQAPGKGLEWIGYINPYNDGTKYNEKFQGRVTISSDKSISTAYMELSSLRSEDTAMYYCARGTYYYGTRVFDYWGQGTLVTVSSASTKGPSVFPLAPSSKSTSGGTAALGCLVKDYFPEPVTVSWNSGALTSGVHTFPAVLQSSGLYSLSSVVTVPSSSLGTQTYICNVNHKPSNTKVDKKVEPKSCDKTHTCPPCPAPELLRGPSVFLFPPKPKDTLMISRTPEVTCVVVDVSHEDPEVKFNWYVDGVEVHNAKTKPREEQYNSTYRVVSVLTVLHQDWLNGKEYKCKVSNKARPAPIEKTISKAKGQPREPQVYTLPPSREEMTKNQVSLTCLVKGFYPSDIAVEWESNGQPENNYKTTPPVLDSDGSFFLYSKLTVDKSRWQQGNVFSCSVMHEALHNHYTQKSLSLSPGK
light: DIVMTQSPATLSLSPGERATLSCRSSKSLQNVNGNTYLYWFQQKPGQSPQLLIYRMSNLNSGVPDRFSGSGSGTEFTLTISSLEPEDFAVYYCMQHLEYPITFGAGTKLEIKRTVAAPSVFIFPPSDEQLKSGTASVVCLLNNFYPREAKVQWKVDNALQSGNSQESVTEQDSKDSTYSLSSTLTLSKADYEKHKVYACEVTHQGLSSPVTKSFNRGEC
notes: Control knock out variant; Positions in EU numbering; also called Fc-KO; FcγR knockout
B4: G237S (antibody, human IgG1, kappa)
heavy: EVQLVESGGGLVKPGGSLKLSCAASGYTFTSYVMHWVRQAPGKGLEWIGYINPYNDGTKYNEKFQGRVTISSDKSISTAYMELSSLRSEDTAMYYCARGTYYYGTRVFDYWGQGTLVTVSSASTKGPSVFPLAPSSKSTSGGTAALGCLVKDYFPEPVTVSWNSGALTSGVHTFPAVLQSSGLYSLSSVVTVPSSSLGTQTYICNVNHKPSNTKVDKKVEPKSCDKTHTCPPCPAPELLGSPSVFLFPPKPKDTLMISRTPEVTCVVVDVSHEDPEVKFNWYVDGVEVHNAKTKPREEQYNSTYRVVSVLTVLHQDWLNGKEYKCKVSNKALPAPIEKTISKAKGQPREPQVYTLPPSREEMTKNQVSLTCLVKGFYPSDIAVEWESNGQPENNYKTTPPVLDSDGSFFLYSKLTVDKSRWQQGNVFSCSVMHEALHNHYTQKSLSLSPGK
light: DIVMTQSPATLSLSPGERATLSCRSSKSLQNVNGNTYLYWFQQKPGQSPQLLIYRMSNLNSGVPDRFSGSGSGTEFTLTISSLEPEDFAVYYCMQHLEYPITFGAGTKLEIKRTVAAPSVFIFPPSDEQLKSGTASVVCLLNNFYPREAKVQWKVDNALQSGNSQESVTEQDSKDSTYSLSSTLTLSKADYEKHKVYACEVTHQGLSSPVTKSFNRGEC
notes: as for B1
B5: L234K (antibody, human IgG1, kappa)
heavy: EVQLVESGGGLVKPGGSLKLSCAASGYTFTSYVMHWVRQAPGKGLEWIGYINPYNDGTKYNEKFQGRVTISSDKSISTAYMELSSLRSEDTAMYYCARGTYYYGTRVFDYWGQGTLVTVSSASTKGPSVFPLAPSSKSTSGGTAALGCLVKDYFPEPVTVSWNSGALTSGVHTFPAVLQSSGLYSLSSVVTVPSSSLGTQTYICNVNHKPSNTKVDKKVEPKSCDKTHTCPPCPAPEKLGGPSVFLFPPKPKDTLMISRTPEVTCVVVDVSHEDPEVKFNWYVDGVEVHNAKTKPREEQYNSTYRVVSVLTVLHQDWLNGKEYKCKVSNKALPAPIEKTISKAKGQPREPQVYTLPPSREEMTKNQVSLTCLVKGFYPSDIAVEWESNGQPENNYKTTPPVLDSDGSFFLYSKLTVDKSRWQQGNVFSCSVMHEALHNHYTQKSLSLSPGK
light: DIVMTQSPATLSLSPGERATLSCRSSKSLQNVNGNTYLYWFQQKPGQSPQLLIYRMSNLNSGVPDRFSGSGSGTEFTLTISSLEPEDFAVYYCMQHLEYPITFGAGTKLEIKRTVAAPSVFIFPPSDEQLKSGTASVVCLLNNFYPREAKVQWKVDNALQSGNSQESVTEQDSKDSTYSLSSTLTLSKADYEKHKVYACEVTHQGLSSPVTKSFNRGEC
notes: as for B1
B6: P329E (antibody, human IgG1, kappa)
heavy: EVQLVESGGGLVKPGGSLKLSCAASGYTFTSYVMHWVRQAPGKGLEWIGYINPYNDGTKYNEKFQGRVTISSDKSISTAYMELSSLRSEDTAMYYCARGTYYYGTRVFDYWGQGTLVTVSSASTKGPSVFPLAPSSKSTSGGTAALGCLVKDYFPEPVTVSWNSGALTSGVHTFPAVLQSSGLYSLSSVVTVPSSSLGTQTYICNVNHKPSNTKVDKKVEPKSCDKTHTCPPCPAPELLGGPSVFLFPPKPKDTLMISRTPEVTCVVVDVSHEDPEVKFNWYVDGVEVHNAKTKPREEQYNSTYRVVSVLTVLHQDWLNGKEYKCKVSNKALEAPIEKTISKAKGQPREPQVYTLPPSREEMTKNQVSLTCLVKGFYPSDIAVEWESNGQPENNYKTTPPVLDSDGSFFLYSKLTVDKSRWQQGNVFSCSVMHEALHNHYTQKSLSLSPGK
light: DIVMTQSPATLSLSPGERATLSCRSSKSLQNVNGNTYLYWFQQKPGQSPQLLIYRMSNLNSGVPDRFSGSGSGTEFTLTISSLEPEDFAVYYCMQHLEYPITFGAGTKLEIKRTVAAPSVFIFPPSDEQLKSGTASVVCLLNNFYPREAKVQWKVDNALQSGNSQESVTEQDSKDSTYSLSSTLTLSKADYEKHKVYACEVTHQGLSSPVTKSFNRGEC
notes: as for B1
B7: V266D (antibody, human IgG1, kappa)
heavy: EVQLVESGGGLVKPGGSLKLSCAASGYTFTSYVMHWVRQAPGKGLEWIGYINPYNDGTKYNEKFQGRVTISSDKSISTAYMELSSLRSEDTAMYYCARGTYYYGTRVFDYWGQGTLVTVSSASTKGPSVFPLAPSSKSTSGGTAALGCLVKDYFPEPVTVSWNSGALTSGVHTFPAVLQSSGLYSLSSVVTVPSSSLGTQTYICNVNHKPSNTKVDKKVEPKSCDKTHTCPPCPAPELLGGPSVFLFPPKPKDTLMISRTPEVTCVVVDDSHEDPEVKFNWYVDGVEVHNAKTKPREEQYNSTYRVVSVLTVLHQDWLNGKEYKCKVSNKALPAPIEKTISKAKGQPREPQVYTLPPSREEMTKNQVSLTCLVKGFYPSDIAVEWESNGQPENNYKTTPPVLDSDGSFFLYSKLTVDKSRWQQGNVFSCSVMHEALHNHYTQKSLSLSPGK
light: DIVMTQSPATLSLSPGERATLSCRSSKSLQNVNGNTYLYWFQQKPGQSPQLLIYRMSNLNSGVPDRFSGSGSGTEFTLTISSLEPEDFAVYYCMQHLEYPITFGAGTKLEIKRTVAAPSVFIFPPSDEQLKSGTASVVCLLNNFYPREAKVQWKVDNALQSGNSQESVTEQDSKDSTYSLSSTLTLSKADYEKHKVYACEVTHQGLSSPVTKSFNRGEC
notes: as for B1
B8: anti-CD19 antibody HuAM4G7 IgG1 ^236R/L328R (antibody)
heavy: EVQLVESGGGLVKPGGSLKLSCAASGYTFTSYVMHWVRQAPGKGLEWIGYINPYNDGTKYNEKFQGRVTISSDKSISTAYMELSSLRSEDTAMYYCARGTYYYGTRVFDYWGQGTLVTVSSASTKGPSVFPLAPSSKSTSGGTAALGCLVKDYFPEPVTVSWNSGALTSGVHTFPAVLQSSGLYSLSSVVTVPSSSLGTQTYICNVNHKPSNTKVDKKVEPKSCDKTHTCPPCPAPELLGRGPSVFLFPPKPKDTLMISRTPEVTCVVVDVSHEDPEVKFNWYVDGVEVHNAKTKPREEQYNSTYRVVSVLTVLHQDWLNGKEYKCKVSNKARPAPIEKTISKAKGQPREPQVYTLPPSREEMTKNQVSLTCLVKGFYPSDIAVEWESNGQPENNYKTTPPVLDSDGSFFLYSKLTVDKSRWQQGNVFSCSVMHEALHNHYTQKSLSLSPGK
light: DIVMTQSPATLSLSPGERATLSCRSSKSLQNVNGNTYLYWFQQKPGQSPQLLIYRMSNLNSGVPDRFSGSGSGTEFTLTISSLEPEDFAVYYCMQHLEYPITFGAGTKLEIKRTVAAPSVFIFPPSDEQLKSGTASVVCLLNNFYPREAKVQWKVDNALQSGNSQESVTEQDSKDSTYSLSSTLTLSKADYEKHKVYACEVTHQGLSSPVTKSFNRGEC
notes: also called Fc-KO; FcγR knockout

Tests used:
[1] = target: T7, human FcγRI receptor protein (R&D Systems) (human, UniProt P12314 16-288); assay: SPR
T7 construct: also called soluble FcγRI; solFcγRI
T7 sequence (P12314 16-288 limits assumed): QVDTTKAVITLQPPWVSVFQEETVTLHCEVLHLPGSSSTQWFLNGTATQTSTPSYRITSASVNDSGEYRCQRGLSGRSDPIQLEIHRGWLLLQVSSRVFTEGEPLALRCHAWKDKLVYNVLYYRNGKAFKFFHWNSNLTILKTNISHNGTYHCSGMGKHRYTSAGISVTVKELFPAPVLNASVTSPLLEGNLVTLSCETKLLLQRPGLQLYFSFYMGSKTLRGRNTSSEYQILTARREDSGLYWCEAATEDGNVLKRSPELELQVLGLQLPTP

[2] = target: T8, human FcγRIIIa (158V), His- and GST-tagged (human, UniProt P08637 17-208); assay: SPR
T8 construct: also called V158 FcγRIIIa; VIIIa; not shown: 6xHis and GST tags of the pTT5 vector
T8 sequence (P08637 17-208 F176V): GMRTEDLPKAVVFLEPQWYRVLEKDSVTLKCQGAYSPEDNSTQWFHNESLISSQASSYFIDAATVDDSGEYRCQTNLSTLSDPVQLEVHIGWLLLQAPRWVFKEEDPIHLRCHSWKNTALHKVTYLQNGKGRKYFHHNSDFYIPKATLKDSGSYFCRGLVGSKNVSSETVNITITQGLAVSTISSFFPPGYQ

[3] = target: T1, human FcγRIIa (131R), His- and …; assay: SPR
[4] = target: T2, human FcγRIIa (131H), His- and …; assay: SPR
[5] = target: T3, human FcγRIIb receptor protein (R&D …); assay: SPR
mFcγRIIb = target: T4, mFcγRIIb; assay: SPR, off-rate
Procedure: (§1) Variants were screened for receptor affinity using Biacore™ technology, also referred to as Biacore herein, a surface plasmon resonance (SPR) based technology for studying biomolecular interactions in real time. SPR measurements were performed using a Biacore 3000 instrument (Biacore, Piscataway, N.J.). A protein A/G (Pierce Biotechnology) CM5 biosensor chip (Biacore) was generated using a standard primary amine coupling protocol. All measurements were performed using HBS-EP buffer (10 mM HEPES pH 7.4, 0.15 M NaCl, 3 mM EDTA, 0.005% vol/vol surfactant P20, Biacore). Antibodies at 20 nM or 50 nM in HBS-EP buffer were immobilized on the protein A/G surface and FcγRs were injected. After each cycle, the surface was regenerated by injecting glycine buffer (10 mM, pH 1.5). Data were processed by zeroing time and response before the injection of FcγR and by subtracting appropriate nonspecific signals (response of reference channel and injection of running buffer). Kinetic analyses were performed by global fitting of binding data with a 1:1 Langmuir binding model using BIAevaluation software (Biacore).
(§2) Variant antibodies were tested for their affinity to mouse or cynologous monkey FcγRs using Biacore SPR as described above. Specifically, antibodies were first immobilized on a protein A/G chip to high density, and then followed by injections of the extracellular domain of the mouse or cynologous monkey FcγR of interest. Both association and dissociation phases were tracked in real time using the Biacore technology.

cynoFcγRIIb = target: T5, cynoFcγRIIb; assay: SPR, off-rate
Procedure: as §1, §2

cynoFcγRIIIa = target: T9, cynoFcγRIIIa (Macaca fascicularis, UniProt Q8SPW2); assay: SPR, off-rate
T9 construct: extracellular region, C-terminal His- and GST-tag; also called cynomolgus monkey FcγRIIIa
T9 sequence (Q8SPW2 17-208): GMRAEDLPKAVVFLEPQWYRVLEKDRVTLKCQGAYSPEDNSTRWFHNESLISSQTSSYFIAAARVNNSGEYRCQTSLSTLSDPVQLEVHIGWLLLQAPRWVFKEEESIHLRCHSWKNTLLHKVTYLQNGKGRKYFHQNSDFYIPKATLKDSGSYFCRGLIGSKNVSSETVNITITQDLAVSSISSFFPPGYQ
Procedure: as §1, §2

mFcγRIV = target: T6, mFcγRIV; assay: SPR, off-rate
Procedure: as §1, §2

[6] = target: T10, human FcγRIIIa (158F), His- and GST-tagged (human, UniProt P08637 17-208); assay: SPR
T10 construct: also called F158 FcγRIIIa; not shown: 6xHis and GST tags of the pTT5 vector
T10 sequence (P08637 17-208): as the sequence (P08637 17-208 F176V) above, with V160F counted along it

Binder	Fold vs WT IgG1 [1] [fold]	Kd [1] [µM]	binding result [2]	Fold vs WT IgG1 [3] [fold]	Kd [3] [µM]	binding result [4]	Fold vs WT IgG1 [5] [fold]	Kd [5] [µM]	binding result (mFcγRIIb)	binding result (cynoFcγRIIb)	binding result (cynoFcγRIIIa)	binding result (mFcγRIV)	Kd [2] [µM]	Kd [4] [µM]	binding result [1]	binding result [3]	binding result [6]	binding result [5]
B1	0.0108	0.0305	no binding	0.704	1.22	no binding	0.191	7.68	no binding	no binding	no binding	no binding	–	–	–	–	–	–
B2	–	0.0037	–	–	–	–	–	0.0266	no binding	no binding	no binding	no binding	0.579	2.73	–	–	–	–
B3	–	–	no binding	–	–	no binding	–	–	–	–	–	–	–	–	no binding	no binding	no binding	no binding
B4	–	–	–	0.081	10.6	–	0.147	10	no binding	no binding	no binding	no binding	–	–	–	–	–	–
B5	–	–	–	0.00859	100	–	0.0147	100	no binding	no binding	no binding	no binding	–	–	–	–	–	–
B6	–	–	–	0.0859	10	–	0.147	10	no binding	no binding	no binding	no binding	–	–	–	–	–	–
B7	–	–	–	0.704	1.22	–	0.147	10	no binding	no binding	no binding	no binding	–	–	–	–	–	–
B8	–	–	no binding	–	–	no binding	–	–	–	–	–	–	–	–	no binding	no binding	no binding	no binding
